T1: TrfA wt (G254D/S267L, 33 kDa) (plasmid RK2, UniProt P07676 98-382, G254D;S267L)
T1 sequence: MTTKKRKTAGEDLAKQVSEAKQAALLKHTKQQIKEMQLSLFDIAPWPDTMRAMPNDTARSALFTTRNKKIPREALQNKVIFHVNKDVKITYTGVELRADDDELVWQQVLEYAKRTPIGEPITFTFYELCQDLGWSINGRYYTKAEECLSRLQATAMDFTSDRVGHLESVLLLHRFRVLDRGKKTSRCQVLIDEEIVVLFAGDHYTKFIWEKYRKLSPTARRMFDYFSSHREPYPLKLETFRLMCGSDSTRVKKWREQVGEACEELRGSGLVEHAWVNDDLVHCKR

B1: 53T (dsDNA)
DNA 1: CCTGCGGTATTGACACTTGAGGGGCGCGACTACTGACAGATGAGGGGCGCGATCCTTGACACTTGAGGGGCAGAGTGATGACAGATGAGGGGCGCACCTATTGACATTTGAGGGGCTGTCCACAGGCAG
DNA 2: CTGCCTGTGGACAGCCCCTCAAATGTCAATAGGTGCGCCCCTCATCTGTCATCACTCTGCCCCTCAAGTGTCAAGGATCGCGCCCCTCATCTGTCAGTAGTCGCGCCCCTCAAGTGTCAATACCGCAGG
modifications: 5-Br-dU at T53 of top strand
B2: 56T (dsDNA)
DNA 1: B1 DNA 1
DNA 2: B1 DNA 2
modifications: 5-Br-dU at T56 of top strand
B3: 57T (dsDNA)
DNA 1: B1 DNA 1
DNA 2: B1 DNA 2
modifications: 5-Br-dU at T57 of top strand
B4: 58B (dsDNA)
DNA 1: B1 DNA 1
DNA 2: B1 DNA 2
modifications: 5-Br-dU in bottom strand: CACTC[BrdU]GCCCC
B5: 69B (dsDNA)
DNA 1: B1 DNA 1
DNA 2: B1 DNA 2
modifications: 5-Br-dU in bottom strand: CTCAAG[BrdU]GTCAAGG
B6: 71B (dsDNA)
DNA 1: B1 DNA 1
DNA 2: B1 DNA 2
modifications: 5-Br-dU in bottom strand: CAAGTG[BrdU]CAAGG
B7: 3T (dsDNA)
DNA 1: AGTGATGACAGATGAGGGGCGC
DNA 2: GCGCCCCTCATCTGTCATCACT
modifications: C2dT at T3 of top strand
B8: 37T (dsDNA)
DNA 1: AGTGATGACAGATGAGGGGCGC
DNA 2: GCGCCCCTCATCTGTCATCACT
modifications: C2dT at T15 of bottom strand
B9: 40T (dsDNA)
DNA 1: AGTGATGACAGATGAGGGGCGC
DNA 2: GCGCCCCTCATCTGTCATCACT
modifications: C2dT at T18 of bottom strand

These binders were tested against T1, TrfA wt (G254D/S267L, 33 kDa) (assay: UV crosslinking).
B1: binds.
B2: binds.
B3: binds.
B4: binds.
B5: binds.
B6: binds.

Each binder was assayed against T1, TrfA wt (G254D/S267L, 33 kDa) (assay: crosslinking-MS).
B7: binds.
B8: binds.
B9: binds.
